According to patent US20210238305A1 (REMEGEN, published 2021):

Biological target: T1, human epidermal growth factor receptor 2 (Her2) (human, UniProt P04626 23-1255)
T1 construct: whole, on cells; Endogenous Her2 in fixed patient tissue; also called ErbB2
Assay: IHC grade, no antigen retrieval, breast carcinoma sample 5 (18-07814-1)

B1: RC48M antibody (antibody, mouse IgG1, kappa, V domains shown)
VH: EVQLVQSGAEVKKPGATVKISCKVSGYTFTDYYIHWVQQAPGKGLEWMGRVNPDHGDSYYNQKFKDKATITADKSTDTAYMELSSLRSEDTAVYFCARNYLFDHWGQGTLVTVSS
VL: DIQMTQSPSSVSASVGDRVTITCKASQDVGTAVAWYQQKPGKAPKLLIYWASIRHTGVPSRFSGSGSGTDFTLTISSLQPEDFATYYCHQFATYTFGGGTKVEIKR
notes: also called R48M
B1: binds.
